Measured values reported in ChEMBL document CHEMBL1143427, “Interactions of ceftobiprole with beta-lactamases from molecular classes A to D” (Antimicrob Agents Chemother, 2007).

Experiments:
[1] = test system: CC(C)(O/N=C(\C(=O)N[C@@H]1C(=O)N2C(C(=O)[O-])=C(C[n+]3ccccc3)CS[C@H]12)c1csc(N)n1)C(=O)O; assay: (§1) Ratio of Kcat to Km of Pseudomonas aeruginosa VIM2 assessed as drug hydrolysis by spectrophotometry
[2] = test system: O=C(Cc1cccs1)N[C@@H]1C(=O)N2C(C(=O)[O-])=C(C[n+]3ccccc3)CS[C@H]12; assay: as §1
[3] = test system: CC(C)(O/N=C(\C(=O)N[C@@H]1C(=O)N2C(C(=O)[O-])=C(C[n+]3ccccc3)CS[C@H]12)c1csc(N)n1)C(=O)O; assay: (§2) Activity of Pseudomonas aeruginosa VIM2 assessed as drug hydrolysis by spectrophotometry
[4] = test system: Nc1nc(/C(=N/O)C(=O)N[C@@H]2C(=O)N3C(C(=O)O)=C(/C=C4\CCN([C@@H]5CCNC5)C4=O)CS[C@H]23)ns1; assay: as §2
[5] = test system: O=C(Cc1cccs1)N[C@@H]1C(=O)N2C(C(=O)[O-])=C(C[n+]3ccccc3)CS[C@H]12; assay: as §2
[6] = test system: O=C(Cc1cccs1)N[C@@H]1C(=O)N2C(C(=O)O)=C(/C=C/c3ccc([N+](=O)[O-])cc3[N+](=O)[O-])CS[C@H]12; assay: (§3) Activity of Morganella morganii AmpC assessed as drug hydrolysis by spectrophotometry
[7] = test system: CC1(C)S[C@@H]2[C@H](NC(=O)Cc3ccccc3)C(=O)N2[C@H]1C(=O)O; assay: as §3
[8] = test system: CC(C)(O/N=C(\C(=O)N[C@@H]1C(=O)N2C(C(=O)[O-])=C(C[n+]3ccccc3)CS[C@H]12)c1csc(N)n1)C(=O)O; assay: as §3
[9] = test system: Nc1nc(/C(=N/O)C(=O)N[C@@H]2C(=O)N3C(C(=O)O)=C(/C=C4\CCN([C@@H]5CCNC5)C4=O)CS[C@H]23)ns1; assay: as §3
[10] = test system: O=C(Cc1cccs1)N[C@@H]1C(=O)N2C(C(=O)[O-])=C(C[n+]3ccccc3)CS[C@H]12; assay: as §3
[11] = test system: CO/N=C(\C(=O)N[C@@H]1C(=O)N2C(C(=O)[O-])=C(C[N+]3(C)CCCC3)CS[C@H]12)c1csc(N)n1; assay: as §3
[12] = test system: O=C(Cc1cccs1)N[C@@H]1C(=O)N2C(C(=O)O)=C(/C=C/c3ccc([N+](=O)[O-])cc3[N+](=O)[O-])CS[C@H]12; assay: (§4) Ratio of Kcat to Km of Morganella morganii AmpC assessed as drug hydrolysis by spectrophotometry
[13] = test system: CC1(C)S[C@@H]2[C@H](NC(=O)Cc3ccccc3)C(=O)N2[C@H]1C(=O)O; assay: as §4
[14] = test system: CC(C)(O/N=C(\C(=O)N[C@@H]1C(=O)N2C(C(=O)[O-])=C(C[n+]3ccccc3)CS[C@H]12)c1csc(N)n1)C(=O)O; assay: as §4
[15] = test system: Nc1nc(/C(=N/O)C(=O)N[C@@H]2C(=O)N3C(C(=O)O)=C(/C=C4\CCN([C@@H]5CCNC5)C4=O)CS[C@H]23)ns1; assay: as §4
[16] = test system: O=C(Cc1cccs1)N[C@@H]1C(=O)N2C(C(=O)[O-])=C(C[n+]3ccccc3)CS[C@H]12; assay: as §4
[17] = test system: CO/N=C(\C(=O)N[C@@H]1C(=O)N2C(C(=O)[O-])=C(C[N+]3(C)CCCC3)CS[C@H]12)c1csc(N)n1; assay: as §4

Beta-lactamase VIM-2 (Pseudomonas aeruginosa) (from UniProt Q9K2N0)
kcat/Km [1]: 0.0015 s⁻¹ µM⁻¹
kcat/Km [2]: 0.086 s⁻¹ µM⁻¹
Km [3]: 150 µM
kcat [3]: 0.23 s⁻¹
Km [4]: 46 µM
kcat [4]: 15 s⁻¹
Km [5]: 1400 µM
kcat [5]: 120 s⁻¹

Beta-lactamase (Morganella morganii) (from UniProt P94958)
Km [6]: 31 µM
kcat [6]: 1200 s⁻¹
Km [7]: 7.9 µM
kcat [7]: 190 s⁻¹
Km [8]: 14 µM
kcat [8]: < 1 s⁻¹
Km [9]: 23 µM
kcat [9]: < 0.047 s⁻¹
Km [10]: 260 µM
kcat [10]: 740 s⁻¹
Km [11]: 690 µM
kcat [11]: < 0.35 s⁻¹
kcat/Km [12]: 39 s⁻¹ µM⁻¹
kcat/Km [13]: 24 s⁻¹ µM⁻¹
kcat/Km [14]: < 0.071 s⁻¹ µM⁻¹
kcat/Km [15]: < 0.002 s⁻¹ µM⁻¹
kcat/Km [16]: 2.8 s⁻¹ µM⁻¹
kcat/Km [17]: < 0.00051 s⁻¹ µM⁻¹
